Paper PMC3078644

Target: Sortilin (immobilised for SPR) (UniProt Q99523)
Assay: SPR

Sortilin (immobilised for SPR), sequence (P20783 whole entry): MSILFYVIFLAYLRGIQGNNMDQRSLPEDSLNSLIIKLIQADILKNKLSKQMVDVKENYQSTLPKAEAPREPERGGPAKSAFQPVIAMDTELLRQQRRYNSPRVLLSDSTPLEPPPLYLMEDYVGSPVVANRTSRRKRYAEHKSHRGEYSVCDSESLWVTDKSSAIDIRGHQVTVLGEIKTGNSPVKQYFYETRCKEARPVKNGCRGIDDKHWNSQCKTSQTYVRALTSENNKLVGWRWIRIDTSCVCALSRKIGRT

Kd: 20 nM
Substance: GST-NT3pro (prodomain of proNT3 fused to glutathione-S-transferase) (domain or fragment; other documents disagree on this pair)
